Results taken from patent US20180155451A1 (published 2018).

Experiments:
[1] = target: T1, FcγRIIb extracellular domain with C-terminal His tag (human, UniProt P31994 43-217); assay: SPR (Biacore), antibody captured on antigen peptide chip, FcγR as analyte; relative binding
T1 construct: extracellular domain; soluble receptor expressed in FreeStyle293 cells, used as analyte in Biacore; also called FcgRIIb; 2b; not shown: His tag attached to the C terminus
T1 sequence (looked up): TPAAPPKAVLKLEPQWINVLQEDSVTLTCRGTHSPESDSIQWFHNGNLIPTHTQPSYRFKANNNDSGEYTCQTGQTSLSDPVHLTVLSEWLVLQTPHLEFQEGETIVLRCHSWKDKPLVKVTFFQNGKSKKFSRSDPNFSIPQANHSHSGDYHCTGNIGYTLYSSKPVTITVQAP

[2] = target: T2, FcγRIa extracellular domain with C-terminal His tag (human, UniProt P12314 16-292); assay: as above
T2 construct: extracellular domain; soluble receptor expressed in FreeStyle293 cells, used as analyte in Biacore; also called FcgRI; 1a; not shown: His tag attached to the C terminus
T2 sequence (P12314 16-292): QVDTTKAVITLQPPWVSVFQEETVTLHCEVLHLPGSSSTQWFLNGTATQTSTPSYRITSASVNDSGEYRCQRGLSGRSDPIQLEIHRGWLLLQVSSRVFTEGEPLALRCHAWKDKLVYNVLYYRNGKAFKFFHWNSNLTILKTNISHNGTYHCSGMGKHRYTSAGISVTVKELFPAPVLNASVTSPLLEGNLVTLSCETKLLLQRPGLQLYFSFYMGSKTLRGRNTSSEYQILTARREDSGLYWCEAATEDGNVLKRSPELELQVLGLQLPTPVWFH

B1: GpH7-A5/GpH7-B3 variant Q295_07I/GpL16-k0 (antibody, human IgG1, kappa)
heavy 1: not shown
heavy 2: not shown
light: DIVMTQSPLSLPVTPGEPASISCQASESLVHSNRNTYLHWYLQKPGQSPQLLIYKVSNRFSGVPDRFSGSGSGTDFTLKISRVEAEDVGVYYCSQNTHVPPTFGQGTKVEIERTVAAPSVFIFPPSDEQLKSGTASVVCLLNNFYPREAKVQWKVDNALQSGNSQESVTEQDSKDSTYSLSSTLTLSKADYEKHKVYACEVTHQGLSSPVTKSFNRGEC
notes: heterodimerized anti-glypican-3 IgG1; alteration in the GpH7-B3 chain only; also called He Ab
Q: Which He/Con_2b [1] does the source give for B1 here?
A: 84.3 % of control GpH7-A5/GpH7-B3/GpL16-k0 (=100)

Q: And the He/Con_1a [2]?
A: 103 % of control GpH7-A5/GpH7-B3/GpL16-k0 (=100)

B2: GpH7-A5/GpH7-B3 variant Q295_09D/GpL16-k0 (antibody, human IgG1, kappa)
heavy 1: not shown
heavy 2: not shown
light: DIVMTQSPLSLPVTPGEPASISCQASESLVHSNRNTYLHWYLQKPGQSPQLLIYKVSNRFSGVPDRFSGSGSGTDFTLKISRVEAEDVGVYYCSQNTHVPPTFGQGTKVEIERTVAAPSVFIFPPSDEQLKSGTASVVCLLNNFYPREAKVQWKVDNALQSGNSQESVTEQDSKDSTYSLSSTLTLSKADYEKHKVYACEVTHQGLSSPVTKSFNRGEC
notes: as for B1
Q: Which He/Con_2b [1] does the source give for B2 here?
A: 60.8 % of control GpH7-A5/GpH7-B3/GpL16-k0 (=100)

Q: What about the He/Con_1a [2] of the same binder?
A: 100 % of control GpH7-A5/GpH7-B3/GpL16-k0 (=100)

B3: GpH7-A5/GpH7-B3 variant Q295_11K/GpL16-k0 (antibody, human IgG1, kappa)
heavy 1: not shown
heavy 2: not shown
light: DIVMTQSPLSLPVTPGEPASISCQASESLVHSNRNTYLHWYLQKPGQSPQLLIYKVSNRFSGVPDRFSGSGSGTDFTLKISRVEAEDVGVYYCSQNTHVPPTFGQGTKVEIERTVAAPSVFIFPPSDEQLKSGTASVVCLLNNFYPREAKVQWKVDNALQSGNSQESVTEQDSKDSTYSLSSTLTLSKADYEKHKVYACEVTHQGLSSPVTKSFNRGEC
notes: as for B1
Q: B3 was tested. Which He/Con_2b [1] did it give?
A: 70.4 % of control GpH7-A5/GpH7-B3/GpL16-k0 (=100)

Q: What about the He/Con_1a [2] of the same binder?
A: 101 % of control GpH7-A5/GpH7-B3/GpL16-k0 (=100)

B4: GpH7-A5/GpH7-B3 variant Q295_12R/GpL16-k0 (antibody, human IgG1, kappa)
heavy 1: not shown
heavy 2: not shown
light: DIVMTQSPLSLPVTPGEPASISCQASESLVHSNRNTYLHWYLQKPGQSPQLLIYKVSNRFSGVPDRFSGSGSGTDFTLKISRVEAEDVGVYYCSQNTHVPPTFGQGTKVEIERTVAAPSVFIFPPSDEQLKSGTASVVCLLNNFYPREAKVQWKVDNALQSGNSQESVTEQDSKDSTYSLSSTLTLSKADYEKHKVYACEVTHQGLSSPVTKSFNRGEC
notes: as for B1
Q: For B4, which He/Con_2b [1] is on record?
A: 65.2 % of control GpH7-A5/GpH7-B3/GpL16-k0 (=100)

Q: And the He/Con_1a [2]?
A: 100 % of control GpH7-A5/GpH7-B3/GpL16-k0 (=100)

B5: GpH7-A5/GpH7-B3 variant Q295_13S/GpL16-k0 (antibody, human IgG1, kappa)
heavy 1: not shown
heavy 2: not shown
light: DIVMTQSPLSLPVTPGEPASISCQASESLVHSNRNTYLHWYLQKPGQSPQLLIYKVSNRFSGVPDRFSGSGSGTDFTLKISRVEAEDVGVYYCSQNTHVPPTFGQGTKVEIERTVAAPSVFIFPPSDEQLKSGTASVVCLLNNFYPREAKVQWKVDNALQSGNSQESVTEQDSKDSTYSLSSTLTLSKADYEKHKVYACEVTHQGLSSPVTKSFNRGEC
notes: as for B1
Q: B5 was tested. Which He/Con_2b [1] did it give?
A: 56.9 % of control GpH7-A5/GpH7-B3/GpL16-k0 (=100)

Q: And the He/Con_1a [2]?
A: 102 % of control GpH7-A5/GpH7-B3/GpL16-k0 (=100)

B6: GpH7-A5/GpH7-B3 variant Q295_14T/GpL16-k0 (antibody, human IgG1, kappa)
heavy 1: not shown
heavy 2: not shown
light: DIVMTQSPLSLPVTPGEPASISCQASESLVHSNRNTYLHWYLQKPGQSPQLLIYKVSNRFSGVPDRFSGSGSGTDFTLKISRVEAEDVGVYYCSQNTHVPPTFGQGTKVEIERTVAAPSVFIFPPSDEQLKSGTASVVCLLNNFYPREAKVQWKVDNALQSGNSQESVTEQDSKDSTYSLSSTLTLSKADYEKHKVYACEVTHQGLSSPVTKSFNRGEC
notes: as for B1
Q: How did the He/Con_2b [1] turn out when B6 was run?
A: 66.8 % of control GpH7-A5/GpH7-B3/GpL16-k0 (=100)

Q: What about the He/Con_1a [2] of the same binder?
A: 103 % of control GpH7-A5/GpH7-B3/GpL16-k0 (=100)

B7: GpH7-A5/GpH7-B3 variant Q295_15Y/GpL16-k0 (antibody, human IgG1, kappa)
heavy 1: not shown
heavy 2: not shown
light: DIVMTQSPLSLPVTPGEPASISCQASESLVHSNRNTYLHWYLQKPGQSPQLLIYKVSNRFSGVPDRFSGSGSGTDFTLKISRVEAEDVGVYYCSQNTHVPPTFGQGTKVEIERTVAAPSVFIFPPSDEQLKSGTASVVCLLNNFYPREAKVQWKVDNALQSGNSQESVTEQDSKDSTYSLSSTLTLSKADYEKHKVYACEVTHQGLSSPVTKSFNRGEC
notes: as for B1
Q: With B7 as the binder, how does the He/Con_2b [1] read?
A: 65.4 % of control GpH7-A5/GpH7-B3/GpL16-k0 (=100)

Q: And the He/Con_1a [2]?
A: 102 % of control GpH7-A5/GpH7-B3/GpL16-k0 (=100)

B8: GpH7-A5/GpH7-B3 variant S324_08L/GpL16-k0 (antibody, human IgG1, kappa)
heavy 1: not shown
heavy 2: not shown
light: DIVMTQSPLSLPVTPGEPASISCQASESLVHSNRNTYLHWYLQKPGQSPQLLIYKVSNRFSGVPDRFSGSGSGTDFTLKISRVEAEDVGVYYCSQNTHVPPTFGQGTKVEIERTVAAPSVFIFPPSDEQLKSGTASVVCLLNNFYPREAKVQWKVDNALQSGNSQESVTEQDSKDSTYSLSSTLTLSKADYEKHKVYACEVTHQGLSSPVTKSFNRGEC
notes: as for B1
Q: How did the He/Con_2b [1] turn out when B8 was run?
A: 89.6 % of control GpH7-A5/GpH7-B3/GpL16-k0 (=100)

Q: And the He/Con_1a [2]?
A: 103 % of control GpH7-A5/GpH7-B3/GpL16-k0 (=100)

B9: GpH7-A5/GpH7-B3 variant S324_09D/GpL16-k0 (antibody, human IgG1, kappa)
heavy 1: not shown
heavy 2: not shown
light: DIVMTQSPLSLPVTPGEPASISCQASESLVHSNRNTYLHWYLQKPGQSPQLLIYKVSNRFSGVPDRFSGSGSGTDFTLKISRVEAEDVGVYYCSQNTHVPPTFGQGTKVEIERTVAAPSVFIFPPSDEQLKSGTASVVCLLNNFYPREAKVQWKVDNALQSGNSQESVTEQDSKDSTYSLSSTLTLSKADYEKHKVYACEVTHQGLSSPVTKSFNRGEC
notes: as for B1
Q: B9 was tested. Which He/Con_2b [1] did it give?
A: 85.8 % of control GpH7-A5/GpH7-B3/GpL16-k0 (=100)

Q: What about the He/Con_1a [2] of the same binder?
A: 104 % of control GpH7-A5/GpH7-B3/GpL16-k0 (=100)

B10: GpH7-A5/GpH7-B3 variant S324_10E/GpL16-k0 (antibody, human IgG1, kappa)
heavy 1: not shown
heavy 2: not shown
light: DIVMTQSPLSLPVTPGEPASISCQASESLVHSNRNTYLHWYLQKPGQSPQLLIYKVSNRFSGVPDRFSGSGSGTDFTLKISRVEAEDVGVYYCSQNTHVPPTFGQGTKVEIERTVAAPSVFIFPPSDEQLKSGTASVVCLLNNFYPREAKVQWKVDNALQSGNSQESVTEQDSKDSTYSLSSTLTLSKADYEKHKVYACEVTHQGLSSPVTKSFNRGEC
notes: as for B1
Q: How did the He/Con_2b [1] turn out when B10 was run?
A: 77.4 % of control GpH7-A5/GpH7-B3/GpL16-k0 (=100)

Q: And the He/Con_1a [2]?
A: 105 % of control GpH7-A5/GpH7-B3/GpL16-k0 (=100)

B11: GpH7-A5/GpH7-B3 variant S324_11K/GpL16-k0 (antibody, human IgG1, kappa)
heavy 1: not shown
heavy 2: not shown
light: DIVMTQSPLSLPVTPGEPASISCQASESLVHSNRNTYLHWYLQKPGQSPQLLIYKVSNRFSGVPDRFSGSGSGTDFTLKISRVEAEDVGVYYCSQNTHVPPTFGQGTKVEIERTVAAPSVFIFPPSDEQLKSGTASVVCLLNNFYPREAKVQWKVDNALQSGNSQESVTEQDSKDSTYSLSSTLTLSKADYEKHKVYACEVTHQGLSSPVTKSFNRGEC
notes: as for B1
Q: Which He/Con_2b [1] does the source give for B11 here?
A: 68.6 % of control GpH7-A5/GpH7-B3/GpL16-k0 (=100)

Q: What about the He/Con_1a [2] of the same binder?
A: 102 % of control GpH7-A5/GpH7-B3/GpL16-k0 (=100)

B12: GpH7-A5/GpH7-B3 variant S324_12R/GpL16-k0 (antibody, human IgG1, kappa)
heavy 1: not shown
heavy 2: not shown
light: DIVMTQSPLSLPVTPGEPASISCQASESLVHSNRNTYLHWYLQKPGQSPQLLIYKVSNRFSGVPDRFSGSGSGTDFTLKISRVEAEDVGVYYCSQNTHVPPTFGQGTKVEIERTVAAPSVFIFPPSDEQLKSGTASVVCLLNNFYPREAKVQWKVDNALQSGNSQESVTEQDSKDSTYSLSSTLTLSKADYEKHKVYACEVTHQGLSSPVTKSFNRGEC
notes: as for B1
Q: What does the source list for B12?
A: He/Con_2b [1]: 63.1 % of control GpH7-A5/GpH7-B3/GpL16-k0 (=100); He/Con_1a [2]: 102 % of control GpH7-A5/GpH7-B3/GpL16-k0 (=100)

B13: GpH7-A5/GpH7-B3 variant S324_14T/GpL16-k0 (antibody, human IgG1, kappa)
heavy 1: not shown
heavy 2: not shown
light: DIVMTQSPLSLPVTPGEPASISCQASESLVHSNRNTYLHWYLQKPGQSPQLLIYKVSNRFSGVPDRFSGSGSGTDFTLKISRVEAEDVGVYYCSQNTHVPPTFGQGTKVEIERTVAAPSVFIFPPSDEQLKSGTASVVCLLNNFYPREAKVQWKVDNALQSGNSQESVTEQDSKDSTYSLSSTLTLSKADYEKHKVYACEVTHQGLSSPVTKSFNRGEC
notes: as for B1
Q: With B13 as the binder, how does the He/Con_2b [1] read?
A: 88.4 % of control GpH7-A5/GpH7-B3/GpL16-k0 (=100)

Q: And the He/Con_1a [2]?
A: 121 % of control GpH7-A5/GpH7-B3/GpL16-k0 (=100)

B14: GpH7-A5/GpH7-B3 variant S324_15Y/GpL16-k0 (antibody, human IgG1, kappa)
heavy 1: not shown
heavy 2: not shown
light: DIVMTQSPLSLPVTPGEPASISCQASESLVHSNRNTYLHWYLQKPGQSPQLLIYKVSNRFSGVPDRFSGSGSGTDFTLKISRVEAEDVGVYYCSQNTHVPPTFGQGTKVEIERTVAAPSVFIFPPSDEQLKSGTASVVCLLNNFYPREAKVQWKVDNALQSGNSQESVTEQDSKDSTYSLSSTLTLSKADYEKHKVYACEVTHQGLSSPVTKSFNRGEC
notes: as for B1
Q: How did the He/Con_2b [1] turn out when B14 was run?
A: 88.2 % of control GpH7-A5/GpH7-B3/GpL16-k0 (=100)

Q: And the He/Con_1a [2]?
A: 114 % of control GpH7-A5/GpH7-B3/GpL16-k0 (=100)

B15: GpH7-A5/GpH7-B3 variant S324_16H/GpL16-k0 (antibody, human IgG1, kappa)
heavy 1: not shown
heavy 2: not shown
light: DIVMTQSPLSLPVTPGEPASISCQASESLVHSNRNTYLHWYLQKPGQSPQLLIYKVSNRFSGVPDRFSGSGSGTDFTLKISRVEAEDVGVYYCSQNTHVPPTFGQGTKVEIERTVAAPSVFIFPPSDEQLKSGTASVVCLLNNFYPREAKVQWKVDNALQSGNSQESVTEQDSKDSTYSLSSTLTLSKADYEKHKVYACEVTHQGLSSPVTKSFNRGEC
notes: as for B1
Q: For B15, which He/Con_2b [1] is on record?
A: 83.5 % of control GpH7-A5/GpH7-B3/GpL16-k0 (=100)

Q: What about the He/Con_1a [2] of the same binder?
A: 113 % of control GpH7-A5/GpH7-B3/GpL16-k0 (=100)
